± gives the standard error. For part of these data: This sample holds only a part of the variants without activity.
B1: glmS ribozyme (parent)
chain: AUAAAAGCGCCAGAACUACAGAAAUGUAGUUGACGAGGAGGAGGUUUAUCGAAUUUUCGGCGGAUGCCUCCAAA

How the values were obtained:
Settings in all cases: with glucosamine-6-phosphate
glucosamine-6-phosphate [1] = variants of: B1; experiment: kcat; higher = faster cleavage; RNA array
Method in brief: (§1)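 Sequenced MiSeq chips were the platform: E. coli RNA polymerase transcribed barcoded ribozyme variants on them in situ, and a hybridised Cy3 probe tracked these at 37 °C. After glucosamine-6-phosphate (40 μM to 10 mM) in HEPES/KCl/Mg(OAc)2 buffer was flowed in, tiles were imaged over ~14 h. Signals normalised to baseline and to non-cleaving reference variants were reduced to per-tile medians and fit to one- or two-exponential decays to obtain kobs. kcat and KM were derived through weighted Michaelis–Menten fits across concentrations.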

glucosamine-6-phosphate [2] = variants of: B1; experiment: KM; higher = weaker cofactor use; RNA array
Method in brief: as §1

glucosamine-6-phosphate [3] = variants of: B1; experiment: self-cleavage kobs at 40 uM GlcN6P; higher = faster cleavage; RNA array
Method in brief: as §1

glucosamine-6-phosphate [4] = variants of: B1; experiment: self-cleavage kobs at 160 uM GlcN6P; higher = faster cleavage; RNA array
Method in brief: as §1

glucosamine-6-phosphate [5] = variants of: B1; experiment: self-cleavage kobs at 640 uM GlcN6P; higher = faster cleavage; RNA array
Method in brief: as §1

glucosamine-6-phosphate [6] = variants of: B1; experiment: self-cleavage kobs at 2500 uM GlcN6P; higher = faster cleavage; RNA array
Method in brief: as §1

glucosamine-6-phosphate [7] = variants of: B1; experiment: self-cleavage kobs at 10000 uM GlcN6P; higher = faster cleavage; RNA array
Method in brief: as §1

Variant	kcat (glucosamine-6-phosphate [1])	KM (glucosamine-6-phosphate [2])	self-cleavage kobs at 40 uM GlcN6P (glucosamine-6-phosphate [3])	self-cleavage kobs at 160 uM GlcN6P (glucosamine-6-phosphate [4])	self-cleavage kobs at 640 uM GlcN6P (glucosamine-6-phosphate [5])	self-cleavage kobs at 2500 uM GlcN6P (glucosamine-6-phosphate [6])	self-cleavage kobs at 10000 uM GlcN6P (glucosamine-6-phosphate [7])
A33C	0.000505 ± 2.5e-05 s⁻¹	2800 ± 240 µM	1.4e-05 ± 2.6e-06 s⁻¹	2.95e-05 ± 1.7e-06 s⁻¹	9.27e-05 ± 1.9e-06 s⁻¹	0.000541 ± 0.00018 s⁻¹	0.000395 ± 6.8e-06 s⁻¹
A33G C67G	1.67e-05 ± 4.8e-06 s⁻¹						
G37A A53C	0.000609 ± 7.9e-05 s⁻¹	3030 ± 740 µM			0.00012 ± 2.1e-05 s⁻¹	0.00027 ± 3.6e-05 s⁻¹	0.000468 ± 5.8e-05 s⁻¹
G29U G59U	< 1e-05 s⁻¹			< 1e-05 s⁻¹			
C67A C70A	5e-05 ± 6.5e-06 s⁻¹				4.23e-05 ± 1.8e-05 s⁻¹	6.33e-05 ± 1e-05 s⁻¹	4.28e-05 ± 7.3e-06 s⁻¹
C61U U69G	1.8e-05 ± 3.9e-06 s⁻¹						
U57G C58G	3.94e-05 ± 1.6e-05 s⁻¹				7.15e-05 ± 2.3e-05 s⁻¹	5.55e-05 ± 2e-05 s⁻¹	
A12U C16A U56A	0.00194 ± 0.00074 s⁻¹		0.000111 ± 2e-05 s⁻¹		0.000636 ± 0.00015 s⁻¹	0.00102 ± 0.00035 s⁻¹	0.00247 ± 0.00041 s⁻¹
G44U C67A	0.0253 ± 0.0035 s⁻¹	1130 ± 210 µM	0.000868 ± 0.0001 s⁻¹	0.00267 ± 0.00064 s⁻¹	0.00977 ± 0.0013 s⁻¹	0.0244 ± 0.0065 s⁻¹	0.0209 ± 0.0036 s⁻¹
G13C U31C G32U U65G C67U	6.88e-05 ± 4.5e-06 s⁻¹	3040 ± 640 µM					5.26e-05 ± 1.4e-05 s⁻¹
U31A G41A	0.000876 ± 0.00042 s⁻¹			8.73e-05 ± 1.5e-05 s⁻¹	0.000163 ± 3.6e-05 s⁻¹	0.00078 ± 0.00012 s⁻¹	0.000647 ± 0.00014 s⁻¹
A14C G66C	9.53e-05 ± 3.1e-06 s⁻¹	2140 ± 260 µM				5.12e-05 ± 1.5e-05 s⁻¹	7.85e-05 ± 9.8e-06 s⁻¹
C50A C71G	1.89e-05 ± 5.7e-06 s⁻¹						
C16A	0.00334 ± 0.00087 s⁻¹	2630 ± 840 µM	6.14e-05 ± 1.3e-06 s⁻¹	0.000152 ± 5e-06 s⁻¹	0.000602 ± 3.1e-05 s⁻¹	0.0017 ± 7.8e-05 s⁻¹	0.00269 ± 8.5e-05 s⁻¹
A42G U46A	0.00476 ± 0.00084 s⁻¹	1200 ± 320 µM	0.000149 ± 2.5e-05 s⁻¹	0.000896 ± 0.00031 s⁻¹	0.00178 ± 0.00057 s⁻¹		0.00455 ± 0.00072 s⁻¹
G40A U45A	0.00316 ± 0.00068 s⁻¹	510 ± 160 µM	0.000251 ± 3.8e-05 s⁻¹	0.000585 ± 0.00027 s⁻¹	0.00157 ± 0.00029 s⁻¹	0.00221 ± 0.00084 s⁻¹	0.00427 ± 0.00099 s⁻¹
G29U A39G	0.0173 ± 0.0026 s⁻¹	3640 ± 720 µM	0.000218 ± 4.4e-05 s⁻¹	0.000723 ± 0.00021 s⁻¹	0.00233 ± 0.0004 s⁻¹	0.0072 ± 0.0012 s⁻¹	0.0129 ± 0.0028 s⁻¹

From the supplement of paper PMC7125110
